According to publication PMC7829508, “Binding of Campylobacter jejuni FliW Adjacent to the CsrA RNA-Binding Pockets Modulates CsrA Regulatory Activity” (Frontiers in Microbiology, 2020):

What was measured:
FliW-His6 (C. jejuni) = FliW-His6 (C. jejuni) (UniProt Q0P9H9); test: SPR; BIAcore T100; FliW-His6 amine-coupled to CM5 chip; CsrA-His6 injected at 0-500 nM, 30 μL/min, 180 s association, 600 s dissociation; 20 mM phosphate buffer, 0.05% Tween 20, pH 7.4; bivalent analyte model, constant of the first binding event (KD1)
FliW-His6 = target: T1, FliW-His6 (C. jejuni, UniProt Q0P9H9 1-129); test: as above; settings: both partners purified
T1 construct: FliW of Campylobacter jejuni, fliW cloned into pET-20b(+) (pET-20b-FliW-His6, Li et al., 2018); also called C. jejuni FliW
T1 sequence (looked up): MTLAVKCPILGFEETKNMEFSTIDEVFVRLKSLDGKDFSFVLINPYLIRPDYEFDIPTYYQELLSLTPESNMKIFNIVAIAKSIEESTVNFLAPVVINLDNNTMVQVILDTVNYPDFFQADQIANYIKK

| Molecule | KD of the first ligand binding site (KD1, bivalent analyte model) (FliW-His6 (C. jejuni)) [µM] | KD of the first ligand binding site (KD1, bivalent analyte model) (FliW-His6) [µM] |
| --- | --- | --- |
| CsrA-N55A-His6 (from UniProt P0DPD4 1-75) (natural protein) | 0.093 |  |
| CsrA-WT-His6 (natural protein, C. jejuni 81-176, UniProt P0DPD4 1-75, looked up, CsrA of Campylobacter jejuni, 75 amino acids; csrA cloned into pET-20b(+) (pET-20b-CsrA-His6, Fields et al., 2016); also called CsrA-His6; source: purified as described previously (El Abbar et al., 2019); not shown: His6, C-terminal, kept) MLILSRKENESIIIGEGIEIKVVQTGKGYAKIGIEAPKSLMILRKELVQQVKDENLHSVVQNDIKLDDLSKKLIK |  | 0.009 |
| CsrA-V51A-His6 (natural protein, C. jejuni 81-176, UniProt P0DPD4 1-75, looked up, CsrA of Campylobacter jejuni, 75 amino acids, with V51A; point mutation cloned into pET20b (El Abbar et al., 2019); source: purified as described previously (El Abbar et al., 2019); not shown: His6, C-terminal, kept) MLILSRKENESIIIGEGIEIKVVQTGKGYAKIGIEAPKSLMILRKELVQQAKDENLHSVVQNDIKLDDLSKKLIK |  | 0.052 |
